7 molecules from patent publication US20160068604A1 (University of Texas, published 2016) can be followed below.

Assay [1] concerns the target T1, human OX40 (human, UniProt P43489 29-277).
T1 construct: whole, on cells; also called hOX40; OX40 receptor
T1 sequence (looked up): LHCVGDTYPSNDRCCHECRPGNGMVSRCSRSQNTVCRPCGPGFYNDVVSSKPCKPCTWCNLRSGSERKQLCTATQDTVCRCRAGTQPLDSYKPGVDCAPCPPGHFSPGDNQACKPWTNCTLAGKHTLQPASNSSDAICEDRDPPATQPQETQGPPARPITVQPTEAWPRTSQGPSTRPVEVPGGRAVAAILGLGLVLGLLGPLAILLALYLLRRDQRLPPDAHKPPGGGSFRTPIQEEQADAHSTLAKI
In words: cell ELISA on dried L-hOX40 versus parental L cells, anti-mouse IgG Fc HRP. The method, then: In the experiment of FIG. 10, hOX40 hybridoma supernatants were screened against L-hOX40 versus L parental cells by ELISA. […] Plates were then frozen at −20° C. for at least one day before use. For antibody binding assays, frozen cells were rehydrated with PBS and washed with wash buffer containing PBS plus 0.05% Tween 20, and blocked with 2% BSA in wash buffer. Conditioned cells were then used for binding to OX40 antibody supernatants.

The target of assay [2] is T1, human OX40. The experiment in a line: FACS binding assay on L/OX40 cells, PE goat anti-human IgG.
Assay [3] has as its target T1, human OX40. The experiment in a line: flow cytometry on L/OX40 cells, FITC goat anti-human IgG. On the procedure:
In a typical experiment, various concentrations of Ch119-43-1 were incubated with 10⁵ L/OX40 cells in PBS containing 0.5% BSA and 0.05% NaN₃ (FACS Buffer) for 1 hour at 4° C. Cells were then washed with ice-cold FACS Buffer and subjected to incubation with FITC-labeled goat anti-human IgG antibody for 30 min at 4° C. After washing with FACS Buffer, stained cells were analyzed using a FACScan flow cytometer (BD Biosciences, San Jose, Calif.).

The target in assay [4] is T1, human OX40. The experiment in a line: FACS binding assay on L/hOX40 cells, PE goat anti-human IgG.

B1: mouse anti-human OX40 monoclonal antibody 119-122 (antibody, V domains shown)
VH: EVQLVESGGGLVQPGESLKLSCESNEYEFPSHDMSWVRKTPEKRLELVAAINSDGGSTYYPDTMERRFIISRDNTKKTLYLQMSSLRSEDTALYYCARHYDDYYAWFAYWGQGTLVTVSA
VL: DIVLTQSPASLAVSLGQRATISCRASKSVSTSGYSYMHWYQQKPGQPPKLLIYLASNLESGVPARFSGSGSGTDFTLNIHPVEEEDAATYYCQHSRELPLTFGAGTKLELK
notes: Mouse hybridoma antibody; also called Mouse122
Take B1: the binding result with human OX40 [1] was “binds”.

B2: Chimeric 119-122 IgG1/kappa monoclonal antibody (antibody, V domains shown)
VH: EVQLVESGGGLVQPGESLKLSCESNEYEFPSHDMSWVRKTPEKRLELVAAINSDGGSTYYPDTMERRFIISRDNTKKTLYLQMSSLRSEDTALYYCARHYDDYYAWFAYWGQGTLVTVSA
VL: DIVLTQSPASLAVSLGQRATISCRASKSVSTSGYSYMHWYQQKPGQPPKLLIYLASNLESGVPARFSGSGSGTDFTLNIHPVEEEDAATYYCQHSRELPLTFGAGTKLELK
notes: Mouse variable regions with human gamma-1 and kappa constant regions (IgG1/kappa); also called Ch119
Regarding B2, in the assay with human OX40 [2], the binding result was “binds”.

B3: Chimeric 119-43-1 IgG1/kappa antibody (antibody, V domains shown)
VH: EVKLEESGGGLVQPGGSMKLSCAASGFTFSDAWMDWVRQSPEKGLEWVAEIRSKANNHATYYAESVNGRFTISRDDSKSSVYLQMNSLRAEDTGIYYCTWGEVFYFDYWGQGTTLTVSS
VL: DIQMTQSPSSLSASLGGKVTITCKSSQDINKYIAWYQHKPGKGPRLLIHYTSTLQPGIPSRFSGSGSGRDYSFSISNLEPEDIATYYCLQYDNLLTFGAGTKLELKR
notes: also called Ch119-43-1
In the assay with human OX40 [3], B3 returned an EC50 of 0.96 µg/mL.

B4: Humanized 106-222 IgG1/kappa monoclonal antibody (antibody, V domains shown)
VH: QVQLVQSGSELKKPGASVKVSCKASGYTFTDYSMHWVRQAPGQGLKWMGWINTETGEPTYADDFKGRFVFSLDTSVSTAYLQISSLKAEDTAVYYCANPYYDYVSYYAMDYWGQGTTVTVSS
VL: DIQMTQSPSSLSASVGDRVTITCKASQDVSTAVAWYQQKPGKAPKLLIYSASYLYTGVPSRFSGSGSGTDFTFTISSLQPEDIATYYCQQHYSTPRTFGQGTKLEIK
notes: Human IgG1/kappa; also called Hu222
As for B4, the binding result with human OX40 [4] is “binds”.

B5: Humanized 119-122 IgG1/kappa monoclonal antibody (antibody, V domains shown)
VH: EVQLVESGGGLVQPGGSLRLSCAASEYEFPSHDMSWVRQAPGKGLELVAAINSDGGSTYYPDTMERRFTISRDNAKNSLYLQMNSLRAEDTAVYYCARHYDDYYAWFAYWGQGTMVTVSS
VL: EIVLTQSPATLSLSPGERATLSCRASKSVSTSGYSYMHWYQQKPGQAPRLLIYLASNLESGVPARFSGSGSGTDFTLTISSLEPEDFAVYYCQHSRELPLTFGGGTKVEIK
notes: Human IgG1/kappa; also called Hu119
For B5, in the assay with human OX40 [2], the binding result was “binds”.

B6: mouse anti-human OX40 monoclonal antibody 106-222 (antibody, V domains shown)
VH: QIQLVQSGPELKKPGETVKISCKASGYTFTDYSMHWVKQAPGKGLKWMGWINTETGEPTYADDFKGRFAFSLETSASTAYLQINNLKNEDTATYFCANPYYDYVSYYAMDYWGHGTSVTVSS
VL: DIVMTQSHKFMSTSVRDRVSITCKASQDVSTAVAWYQQKPGQSPKLLIYSASYLYTGVPDRFTGSGSGTDFTFTISSVQAEDLAVYYCQQHYSTPRTFGGGTKLEIK
notes: Mouse hybridoma antibody; also called Mouse222
For the molecule B6, the binding result with human OX40 [1] is “binds”.

B7: Chimeric 106-222 IgG1/kappa monoclonal antibody (antibody, V domains shown)
VH: QIQLVQSGPELKKPGETVKISCKASGYTFTDYSMHWVKQAPGKGLKWMGWINTETGEPTYADDFKGRFAFSLETSASTAYLQINNLKNEDTATYFCANPYYDYVSYYAMDYWGHGTSVTVSS
VL: DIVMTQSHKFMSTSVRDRVSITCKASQDVSTAVAWYQQKPGQSPKLLIYSASYLYTGVPDRFTGSGSGTDFTFTISSVQAEDLAVYYCQQHYSTPRTFGGGTKLEIK
notes: Mouse variable regions with human gamma-1 and kappa constant regions (IgG1/kappa); also called Ch222
In the case of B7, in the assay with human OX40 [4], the binding result was “binds”.
